B1: DYRK1B (parent)
chain: KKVLNHGYDDDNHDYIVRSGERWL

The results in this text go back to the supplement of paper PMC10567573.
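Also: lentivirally expressed fusions sorted by FACS into six bins by GFP to DsRed ratio, PSI derived from sequencing read proportions per bin multiplied by bin number.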

Variants of B1 are the subject of this data set. Put plainly: protein stability index of a GFP-peptide fusion (GPS, HEK-293T) (PSI 1-6); higher = more stable. To be noted: c terminus: a fixed tail appended.
As to KKVLNHGYDDDNHDYIVRSGLRWL [E21L], the protein stability index is 3.02.

Take KKVLNHGYDDDNHDYIVRSGARWL [E21A]: the protein stability index came to 2.97.

Take KKVLNHGYDDDNHDYIVRSGMRWL [E21M]: the protein stability index turned out to be 2.57.

Turning to KKVLNHGYDDDNHDYIVRSGGRWL [E21G], the protein stability index was 2.57.

Take KKVLNHGYDDDNHDYIVRSGKRWL [E21K]: the protein stability index is 3.1.

As to KKVLNHGYDDDNHDYIVRSGHRWL [E21H], the protein stability index stood at 2.4.

Regarding KKVLNHGYDDDNHDYIVRSGTRWL [E21T], the protein stability index worked out at 2.7.

As for KKVLNHGYDDDNHDYIVRSGFRWL [E21F], the protein stability index worked out at 2.16.

Turning to KKVLNHGYDDDNHDYIVRSGVRWL [E21V], the protein stability index was 2.28.

In the case of KKVLNHGYDDDNHDYIVRSGQRWL [E21Q], the protein stability index stood at 3.05.

In the case of KKVLNHGYDDDNHDYIVRSGPRWL [E21P], the protein stability index amounted to 2.61.

Regarding KKVLNHGYDDDNHDYIVRSGSRWL [E21S], the protein stability index was found to be 2.42.

Take KKVLNHGYDDDNHDYIVRSGRRWL [E21R]: the protein stability index came out at 2.83.

Turning to KKVLNHGYDDDNHDYIVRSGIRWL [E21I], the protein stability index came out at 2.16.

With KKVLNHGYDDDNHDYIVRSGCRWL [E21C], the protein stability index was 2.19.

Take KKVLNHGYDDDNHDYIVRSGWRWL [E21W]: the protein stability index turned out to be 2.57.

Turning to KKVLNHGYDDDNHDYIVRSGYRWL [E21Y], the protein stability index was found to be 2.32.

Take KKVLNHGYDDDNHDYIVRSGNRWL [E21N]: the protein stability index stood at 2.67.

As to KKVLNHGYDDDNHDYIVRSGDRWL [E21D], the protein stability index turned out to be 2.86.

Consider KKVLNHGYDDDNHDYIVRSGERWP [L24P], for which the protein stability index worked out at 3.82.

In the case of KKVLNHGYDDDNHDYIVRSGERWV [L24V], the protein stability index is 3.8.

As to KKVLNHGYDDDNHDYIVRSGERWS [L24S], the protein stability index amounted to 3.58.

KKVLNHGYDDDNHDYIVRSGERWK [L24K]: the protein stability index amounted to 3.85.

With KKVLNHGYDDDNHDYIVRSGERWE [L24E], the protein stability index was found to be 4.07.

For the variant KKVLNHGYDDDNHDYIVRSGERWI [L24I], the protein stability index was 3.33.

On to KKVLNHGYDDDNHDYIVRSGERWQ [L24Q], for which the protein stability index was 3.69.

Consider KKVLNHGYDDDNHDYIVRSGERWY [L24Y], for which the protein stability index is 3.03.

In the case of KKVLNHGYDDDNHDYIVRSGERWH [L24H], the protein stability index turned out to be 3.57.

With KKVLNHGYDDDNHDYIVRSGERWW [L24W], the protein stability index came to 2.85.

As for KKVLNHGYDDDNHDYIVRSGERWM [L24M], the protein stability index came out at 3.49.

For the variant KKVLNHGYDDDNHDYIVRSGERWR [L24R], the protein stability index came out at 3.55.

On to KKVLNHGYDDDNHDYIVRSGERWA [L24A], for which the protein stability index was 3.37.

With KKVLNHGYDDDNHDYIVRSGERWN [L24N], the protein stability index was determined as 3.75.

In the case of KKVLNHGYDDDNHDYIVRSGERWF [L24F], the protein stability index was determined as 2.81.

With KKVLNHGYDDDNHDYIVRSGERWC [L24C], the protein stability index turned out to be 3.46.

With KKVLNHGYDDDNHDYIVRSGERWT [L24T], the protein stability index is 3.51.

Take KKVLNHGYDDDNHDYIVRSGERWD [L24D]: the protein stability index is 4.08.

With KKVLNHGYDDDNHDYIVRSGERWG [L24G], the protein stability index was found to be 3.81.

Regarding KKVLNHGYDDDNHDYIVRNGERWL [S19N], the protein stability index was 3.22.

Consider KKVLNHGYDDDNHDYIVRDGERWL [S19D], for which the protein stability index is 3.64.

KKVLNHGYDDDNHDYIVRQGERWL [S19Q]: the protein stability index was 3.46.

Regarding KKVLNHGYDDDNHDYIVRIGERWL [S19I], the protein stability index worked out at 2.07.

Take KKVLNHGYDDDNHDYIVRYGERWL [S19Y]: the protein stability index is 2.53.

In the case of KKVLNHGYDDDNHDYIVRPGERWL [S19P], the protein stability index amounted to 2.51.

Take KKVLNHGYDDDNHDYIVRCGERWL [S19C]: the protein stability index stood at 2.59.

On to KKVLNHGYDDDNHDYIVRAGERWL [S19A], for which the protein stability index stood at 3.57.

With KKVLNHGYDDDNHDYIVRRGERWL [S19R], the protein stability index amounted to 2.78.

For the variant KKVLNHGYDDDNHDYIVRVGERWL [S19V], the protein stability index was 2.98.

On to KKVLNHGYDDDNHDYIVRHGERWL [S19H], for which the protein stability index is 3.91.

For the variant KKVLNHGYDDDNHDYIVRKGERWL [S19K], the protein stability index came out at 3.2.

With KKVLNHGYDDDNHDYIVRFGERWL [S19F], the protein stability index came to 2.29.

For KKVLNHGYDDDNHDYIVRLGERWL [S19L], the protein stability index worked out at 2.42.

On to KKVLNHGYDDDNHDYIVRWGERWL [S19W], for which the protein stability index was determined as 2.21.

As for KKVLNHGYDDDNHDYIVRGGERWL [S19G], the protein stability index turned out to be 3.25.

Take KKVLNHGYDDDNHDYIVRMGERWL [S19M]: the protein stability index worked out at 2.6.

Turning to KKVLNHGYDDDNHDYIVREGERWL [S19E], the protein stability index stood at 3.25.

For the variant KKVLNHGYDDDNHDYIVRTGERWL [S19T], the protein stability index worked out at 3.06.

In the case of KKVLNHGYDDDNHDYIVRSGERLL [W23L], the protein stability index was found to be 3.88.

In the case of KKVLNHGYDDDNHDYIVRSGERYL [W23Y], the protein stability index amounted to 3.64.

In the case of KKVLNHGYDDDNHDYIVRSGERDL [W23D], the protein stability index was 4.73.

For the variant KKVLNHGYDDDNHDYIVRSGERFL [W23F], the protein stability index came out at 3.62.

As for KKVLNHGYDDDNHDYIVRSGERSL [W23S], the protein stability index was found to be 4.47.

As to KKVLNHGYDDDNHDYIVRSGERRL [W23R], the protein stability index came to 3.6.

As for KKVLNHGYDDDNHDYIVRSGERKL [W23K], the protein stability index came out at 4.3.

For the variant KKVLNHGYDDDNHDYIVRSGERVL [W23V], the protein stability index stood at 4.31.

Turning to KKVLNHGYDDDNHDYIVRSGERIL [W23I], the protein stability index is 3.9.

As to KKVLNHGYDDDNHDYIVRSGERGL [W23G], the protein stability index is 4.07.

As for KKVLNHGYDDDNHDYIVRSGEREL [W23E], the protein stability index was found to be 4.46.

KKVLNHGYDDDNHDYIVRSGERML [W23M]: the protein stability index was 3.93.

Regarding KKVLNHGYDDDNHDYIVRSGERCL [W23C], the protein stability index was 3.8.

As for KKVLNHGYDDDNHDYIVRSGERPL [W23P], the protein stability index turned out to be 3.7.

For KKVLNHGYDDDNHDYIVRSGERQL [W23Q], the protein stability index came out at 4.2.

For KKVLNHGYDDDNHDYIVRSGERHL [W23H], the protein stability index is 3.99.

As for KKVLNHGYDDDNHDYIVRSGERAL [W23A], the protein stability index turned out to be 3.81.

Regarding KKVLNHGYDDDNHDYIVRSGERTL [W23T], the protein stability index is 4.3.

In the case of KKVLNHGYDDDNHDYIVRSGERNL [W23N], the protein stability index was determined as 4.56.

With KKVLNHGYDDDNHDYIVRSLERWL [G20L], the protein stability index worked out at 1.88.

As to KKVLNHGYDDDNHDYIVRSMERWL [G20M], the protein stability index is 2.13.

Consider KKVLNHGYDDDNHDYIVRSHERWL [G20H], for which the protein stability index turned out to be 2.67.

As to KKVLNHGYDDDNHDYIVRSVERWL [G20V], the protein stability index was determined as 2.03.

For the variant KKVLNHGYDDDNHDYIVRSIERWL [G20I], the protein stability index came out at 2.73.

As to KKVLNHGYDDDNHDYIVRSYERWL [G20Y], the protein stability index stood at 2.23.

As for KKVLNHGYDDDNHDYIVRSDERWL [G20D], the protein stability index came to 3.22.

As to KKVLNHGYDDDNHDYIVRSNERWL [G20N], the protein stability index is 3.29.

For KKVLNHGYDDDNHDYIVRSPERWL [G20P], the protein stability index is 3.2.

For KKVLNHGYDDDNHDYIVRSFERWL [G20F], the protein stability index was found to be 2.04.

With KKVLNHGYDDDNHDYIVRSTERWL [G20T], the protein stability index came out at 2.83.

With KKVLNHGYDDDNHDYIVRSWERWL [G20W], the protein stability index was 2.31.

Take KKVLNHGYDDDNHDYIVRSCERWL [G20C]: the protein stability index amounted to 2.95.

Take KKVLNHGYDDDNHDYIVRSQERWL [G20Q]: the protein stability index is 3.34.

With KKVLNHGYDDDNHDYIVRSAERWL [G20A], the protein stability index is 2.73.

Regarding KKVLNHGYDDDNHDYIVRSRERWL [G20R], the protein stability index was 3.54.

For the variant KKVLNHGYDDDNHDYIVRSEERWL [G20E], the protein stability index was found to be 3.65.

Consider KKVLNHGYDDDNHDYIVRSSERWL [G20S], for which the protein stability index amounted to 3.01.
